According to article doi:10.1101/2023.01.23.525191, “Mechanism of an alternative splicing switch mediated by cell-specific and general splicing regulators” (bioRxiv, 2023):

How the values were obtained:
[1] = molecular target: the molecule itself; assay: SEC; size exclusion chromatography of recombinant untagged protein; dimer and higher-order assemblies
[2] = molecular target: the molecule itself; assay: AUC; sedimentation velocity, 500 mM KCl, 20 mM HEPES, 1 mM TCEP, pH 7.9, 20 °C; FL 0.46 and ΔC20 0.57 mg/ml as printed; dimers and higher-order oligomers

B1: recombinant untagged full length rat RBPMS-A (natural protein)
chain: not shown
notes: RBPMS isoform A (RBPMS-A), rat, cDNA NCBI XM_006253240.2, full length open reading frame; it may be the rat protein; Exists as a mixture of dimers and higher-order oligomers; also called FL RBPMS; FL; source: E. coli BL21 (DE3), purified (Histrap, TEV cleavage, mono Q, Superdex 200); not shown: His6, N-terminal, cleaved
stoichiometry N [1]: 2
stoichiometry N [2]: ~21
